The values below come from US20250355001A1 (GTINVENT, published 2025).

Test [1] addresses T1, aggregated dGAE (human, UniProt P10636 614-708, limits assumed).
T1 construct: dGAE aggregated in vitro with DTT, 700 rpm, 37 C, 24 h; also called dGAE aggregates; dGAE agg
The experiment in a line: capture ELISA, mAb coated at 1 µg/ml, aggregates titrated, S1G2 scAb detection. (In general: ELISA stands for enzyme-linked immunosorbent assay.)

The target of test [2] is T2, dGAE (tau 297-391) (human, UniProt P10636 614-708).
T2 construct: monomer; also called dGAE95
The experiment in a line: direct ELISA.

Test [3] has as its target T3, tau fragment 369-390 (human).
T3 peptide: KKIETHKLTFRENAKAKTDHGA
The experiment in a line: direct ELISA.

Test [4] deals with T4, full length human tau protein 2N4R (hT40) (human, UniProt P10636 1-758).
T4 construct: recombinant; also called T441
The test is described as follows: hT40 ELISA.

In test [5] the target is T5, tau peptide 145-157 (human).
T5 peptide: ADGKTKIATPRGA
The test is described as follows: ELISA. How it is done:
(§1) A series of binding ELISA was performed using various truncated versions of the tau protein and 13mer peptide libraries spanning the entire hT40 molecule for mapping the epitopes of anti-tau scAbs (Full list of protein antigens used is given in Table 14). In general, ELISA plates were coated with 1 μg/ml hT40 or dGA or dGAE or other truncated versions of the protein and in the case of biotinylated peptides, plates were coated with 5 μg/ml Streptavidin followed by 1 μg/ml biotinylated peptide. The plates were blocked with 2% MPBS and scAb samples added at desired starting concentrations and double diluted across the plate. Binding was detected using anti-Human C Kappa HRP conjugated secondary antibody and the resulting immunoreaction was developed and absorbance values measured as described above.

Test [6] addresses T4, full length human tau protein 2N4R …. The test is described as follows: SPR, scAb captured, tau analyte. The method, then: (§2) The capture antibody was diluted 1/100 in 10 mM Sodium acetate buffer pH 5.0 and passed over the activated chip surface for a period of at least 420 s. Final ligand immobilisation levels over 12,000 RU were deemed to be satisfactory.
(§3) The scAb to be tested was added only to flow cell 2 so that flow cell 1 could act as a control to subtract any interaction with the analyte and the chip surface. […] The multi-cycle protocol was as follows-Three start-up cycles composed of an initial capture, to the desired level, of the scAb to be tested was performed followed by a 30 s injection of glycine buffer pH 2.0 after each cycle to regenerate the chip surface. […] The target was added for a 120 s association period and 420 s dissociation period followed by another regeneration, 30 s injection of glycine buffer pH 2.0 in between each cycle.
(§4) The single cycle kinetics protocol was similar and utilised the same level of scAb capture. […] In single cycle kinetics the regeneration step was performed only after the final analyte concentration was added. Binding responses were analysed in Biacore X100 evaluation software and data fitted to a 1:1 binding model to obtain kinetic and affinity characterisation.
A general note: In SPR one partner is held on a chip, and binding of the other changes the refractive index at the surface.

In test [7] the target is T6, human tau (hT40) with P301S and G335D of Line 66 mice (human, UniProt P10636 1-758).
T6 construct: transgene product in brain homogenate or plasma; also called L66 human tau
The test is described as follows: Western blot. For orientation: In western blotting, separated proteins are transferred to a membrane and probed.

The target of test [8] is T4, full length human tau protein 2N4R …. The experiment in a line: SPR, hT40 immobilised, mAb analyte. How it is done: For anti-tau mAb SPR measurements, htau40 was conjugated to the surface of a CM5 sensor chip using amine coupling as explained previously. Briefly, 2 μg/mL htau40 in 10 mM Sodium acetate buffer (pH 4.0) was passed over the activated chip surface (EDC/NHS) in flow cell 2 for a period for 45 s followed by blocking with 1 M ethanolamine-HCl PH 8.5. Flow cell 1 was set up as reference control and blocked simultaneously. Final immobilisation level of htau40 (Rmax) was approximately 250 RU. […] The mAb was added for a 120 s association period and 600 s dissociation period followed by a regeneration cycle of 30 s injection of glycine buffer pH 1.5 in between each cycle. Binding responses were analysed in Biacore X100 evaluation software and data fitted to a 1:1 binding model to obtain kinetic and affinity characterisation.

Test [9] has as its target T7, tau fragment 369-391 (human).
T7 peptide: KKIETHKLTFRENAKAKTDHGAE
The test is described as follows: ELISA. How it is done: as §1

Test [10] addresses T4, full length human tau protein 2N4R …. The experiment in a line: Biacore. How it is done:
as §2, §3, §4

For test [11], the target named is T2, dGAE (tau 297-391). The test is described as follows: direct ELISA. This is another data set of the same source.
The target in test [12] is T3, tau fragment 369-390. The test is described as follows: direct ELISA.
The target of test [13] is T4, full length human tau protein 2N4R …. The test is described as follows: sandwich ELISA, S1D12 mAb capture, scAb detection. The method, then: Full length tau (hT40), at 1 μg/ml starting concentration was added to designated wells and double diluted across rest of the plates and left to incubate at R/T for 1 h. A series of detection scAbs with varying epitope recognition properties were added at 10 μg/ml to designated wells (FIG. 22). For colourimetric detection HRP conjugated anti-HuCk secondary antibody was used and the resulting immunoreaction was developed and absorbance at 450 nm measured as described previously. Cut-off point for a positive binding event was an absorbance value of 0.3 following background subtraction. In order to enhance the assay sensitivity, a chemiluminescent detection method was adopted where 50 μL SuperSignal ELISA Femto Substrate (Thermo Scientific) was added to each well following incubation with anti-HuCK HRP antibody and subsequent washing. The luminescence was read using Clariostar Plus microplate reader. A further modification to this protocol was done where various detection scAbs were directly conjugated with HRP and detected using chemiluminescent protocol as before.

In test [14] the target is dGA (tau 297-390) (human, UniProt P10636 614-707). The test is described as follows: ELISA. How it is done: as §1
For test [15], the target named is tau fragment 1-155 (human, UniProt P10636 1-472). The experiment in a line: direct ELISA. The method, then: as §1
Test [16] has as its target T1, aggregated dGAE. The experiment in a line: capture ELISA, mAb coated at 1 µg/ml, S1G2 scAb detection.

Residue numbers refer to the chain shown, from its start. Like-named read-outs stand apart in the source and are kept apart here.

T4 sequence (P10636 other isoform, or with tags, fused parts or gaps limits assumed): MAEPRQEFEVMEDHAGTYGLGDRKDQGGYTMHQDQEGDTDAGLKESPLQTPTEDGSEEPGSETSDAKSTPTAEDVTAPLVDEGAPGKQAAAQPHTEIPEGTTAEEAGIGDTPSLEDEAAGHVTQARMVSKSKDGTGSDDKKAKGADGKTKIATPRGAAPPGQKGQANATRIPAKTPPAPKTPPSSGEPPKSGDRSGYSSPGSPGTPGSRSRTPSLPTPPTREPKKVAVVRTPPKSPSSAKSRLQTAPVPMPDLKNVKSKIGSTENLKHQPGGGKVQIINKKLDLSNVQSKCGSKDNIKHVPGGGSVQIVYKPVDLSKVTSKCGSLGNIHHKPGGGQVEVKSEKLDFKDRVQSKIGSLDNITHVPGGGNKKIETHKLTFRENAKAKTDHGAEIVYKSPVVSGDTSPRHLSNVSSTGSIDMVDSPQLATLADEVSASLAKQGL
T6 sequence (P10636 other isoform, or with tags, fused parts or gaps P301S G335D P301S G335D limits assumed): as the sequence (P10636 other isoform, or with tags, fused parts or gaps limits assumed) above, with P301S, G335D counted along it

B1: E2E8 mAb (antibody, mouse IgG2a, V domains shown)
VH: QVQLQESGPSLVKPSQTLSLTCTVSGFSLTDRGVAWVRQAPGKALEWVGTMRSGGTIDYNPALKSRLSITRDTSKSQVFLSLSSVTTEDMAMYYCARGYLSGDRYAWGRGLLVTVSS
VL: QAVLTQPSSVSKSLGQSVSIACSGSRSDIGYGNYVSWFQQIPGSAPKLLIYDTNTRASGVPDRFSGARSGNTATLTINSLQAEDEADYYCANIDSSRSHLFGSGTRLTVLG
notes: sheep-mouse IgG2a chimeric mAb
A word on the EC50 (read off the curve): it is the midpoint of the concentration-response curve. With B1, the “EC50 (read off the curve)” value in [1] is around 80 nM.

B2: S2C6 scAb (scFv, not shown: small tags and cut ends)
scFv: QVQLQESGPSLVKPSQTLSLTCTVSGFSLISNSVGWVRQAPGKAPEWVAGIDTDGEEGYNPALKSQYAASDPDTSKSQVSLSLSSVTSEDTAVYYCGRTYRTDGFAYGYVQAIDYWGPGLLLTISSEGKSSGASGESKVDDQAVLTQPSSVSGSLGQRVSITCSGSFIGISSVGWFQQLPGSGLRTIIVASDGRPSGVPDRFSMSKSGNTATLTISSLQAEDEADYFCGSSDRTQYTGVFGSGTRLTVLG
notes: scAb
With B2, the “EC50 (read off the curve)” value in test [2] was around 0.8 µg/mL; in [3], around 2 µg/mL.

B3: S1D9 scAb (scFv, not shown: small tags and cut ends)
scFv: QVQLQESGPSLVKPSQTLSLTCTVSGFSLTSNSVGWVRQAPGKAPEWVAGIDSDGEEGYNPALNSRLSITRDTSKNQVSLSLSRVTSEDTAVYYCGRTYRTDGYAYGYVQAIDYWGPGLLVTVSSEGKSSGASGESKVDDRVMLTQPPSVSGSPGQTVSITCSGSFIGISSVGWFQQLPGSGLRTVIFASDGRPSGVPDRFSNSKSGNTATLTISSLQAEDEADYFCGSSDRTQYTGVFGSGTRLTVLS
notes: scAb
Regarding B3, the 50% effective concentration (EC50 (read off the curve)) in [4] is around 1 µg/mL.

B4: 3aA6 scAb (scFv, not shown: small tags and cut ends)
scFv: QVRLQESGSSLVKPSQTLSLVCTVSGFPLTSNAVGWVRQAPGKAPEWLGLIDIDGDTAYNPALESRLSITRDTSKSQVSLSLSSVAIEDTAVYYCARHYDKWGYADSIDYWGPGLLVTVSSEGKSSGASGESKVDDQALLTQPSSVFGSLGQRVSITCSGSSSNVGYGDYVGWYQQVPGSAPKLLIYDATTRASGVPDRFSGSRSGNTATLTISSLQAEDEADYYCASYQNERSGVFGSGTRLTVLG
notes: scAb
The term Kd denotes the concentration at which binding is half-saturated. Low values mean a tighter complex, high ones a looser complex. For orientation: koff means a measure of how fast the partners let go of each other. What is called kon is a measure of how fast the partners come together. A lower kon goes with slower complex formation. As for B4, the binding result in test [5] is “binds”. Also, in test [6], binding was characterised by a dissociation constant (Kd) of 989 nM, the koff is 0.0188 s⁻¹ and the kon amounted to 19000 M⁻¹ s⁻¹.

B5: 3aD6 scAb (scFv, not shown: small tags and cut ends)
scFv: QVQLQESGPSLVKPSQTLSLTCTVSGFSLTSNAVIWVRQAPGKAPEWVALIDVDGDAAYDPALKSRLSITRDTSKSQVSLSLRSVTTEDTAVYYCARDYGSWGYVSDIDYWGPGLLVTVSSEGKSSGASGESKVDDQAVLTQPSSVSGSLGQRVSITCSGSDIGGADVGWFQQVPGSGLRTLIYDNDNRPSGVPDRFSGSKSGNTATLTISSLQPEDEADYFCGTYSGANYGIFGSGTRLTVLG
notes: scAb
For the molecule B5, in [5], the binding result is “binds”.

B6: S1D12 mAb (antibody, mouse IgG2a, V domains shown)
VH: QVQLQESGPSLVKPSQTLSLTCTVSGFSLNNNAVGWVRQAPGKVPESLVGCSSDGTCYYNSALKSRLDITRDTSKNQISLSLSSVTTDDAAVYYCTRGHYSIYGYDYLGTIDYWGPGLLVTVSS
VL: QAVLTQPSSVSGSLGQRVSITCSGSSSNVGGGNSVGWYQHLPGSGLKTIIYDTNSRPSGVPDRFSGSRSGNTATLTINSLQAEDEGDYYCVTGDSTTHDDLVGSGTRLTVLG
notes: sheep-mouse IgG2a chimeric mAb; also called S1D12 antibody; SD12
With B6, the binding result in test [7] is listed as “binds”. Also, in test [8], the dissociation constant (Kd) amounted to 0.101 nM, the koff is 4.09e-05 s⁻¹ and the kon stood at 406000 M⁻¹ s⁻¹. Besides, in [1], the “EC50 (read off the curve)” value was around 30 nM.

B7: S1G10 scAb (scFv, not shown: small tags and cut ends)
scFv: QVQLQESGPSLVKPSQTLSLTCTVSGFSLTSNSVGWVRQAPGKAPEWVAGIDTDGEEGYNPALNSRLSITRDTSKSQVSLSLSSVTSEDTAVYYCGRSYRADGLAYGYVQAIDYWGPGLLVTVSSEGKSSGASGESKVDDQAVLTQPSSMSGSLGQRVSITCSGSFIGISSVGWFQQLPGSGLRTIIVASDGRPSGVPDRFSMSKSGNTATLTISSLQAEDEADYFCGSSDRTQYTGVFGSGTRLTVLG
notes: scAb
On to B7, for which, in [9], the binding result is on record as “binds”. In test [10], the Kd turned out to be 0.4 nM. Besides, the “EC50 (read off the curve)” value in [11] was around 0.9 µg/mL. Besides, the binding result in test [12] is “binds”. Moreover, in [13], the LoD chemiluminescence detection was determined as 0.12 ng/mL and the LoD colourimetric detection is 2 ng/mL.

B8: S1B1 scAb (scFv, not shown: small tags and cut ends)
scFv: B7 scFv with T30S, G96V, A101T, M150V, I186V, M203N
notes: scAb
As for B8, the binding result in [14], in test [4] and in test [11] was “binds” each time.

B9: 3bF4 scAb (scFv, not shown: small tags and cut ends)
scFv: QVQLQESGPSLVKPSQTLSLTCTVSGFSLSSNGVGWVRQAPGKVPEWLGDISSVGKKYANPALKSRLSFTRDTSKSQVSLSLSSVTTEDTAVYYCVKCRDGGVTYGYDIDYWGPGLLVTVSSEGKSSGASGESKVDDQAVLTQPSSVSKSTGQTVSITCSGSSSNVGLRNYVTWFQQVPGSAPKLLIYGATSRASGIPDRFSGSRSGNTATLIISSLQAEDEADYYCASADTNDGGVFGSGTRLTVLG
notes: scAb
For B9, in test [15], the “EC50 (read off the curve)” value is around 1 µg/mL. In addition, in test [6], binding was put at a Kd of 140 nM, the koff is 0.0153 s⁻¹ and the kon came to 109000 M⁻¹ s⁻¹.

B10: CA4 mAb (antibody, mouse IgG2a, V domains shown)
VH: QVQLQESGPSLVKPSQTLSLTCTVSGFSLTSYSVYWVRQAPGQALEWISIMYASGRVDYNPALKSRLSITRDTSKSQFSLSLSSVTTEDTAVYYCTRGIENWGPGLLVTVSS
VL: DIQVTQSPSSLSASLTERVSITCRTSQSVNNYLSWYQQKPGQAPKLLIYYATRLYTDVPSRFSGSGSGTDYTLTITSLEADDTATYYCLQYDSTPLAFGGGTNVEIKG
notes: sheep-mouse IgG2a chimeric mAb; also called CA4 antibody
Regarding B10, in test [8], the equilibrium dissociation constant (Kd) turned out to be 1.3 nM, the koff is 0.00128 s⁻¹ and the kon is 1.02e+06 M⁻¹ s⁻¹. For the same molecule, in test [16], the binding result is listed as “no binding (tested: 800 nM)”.
